Experimental findings from US20130052128A1 (University of California, published 2013) are described below.

Assay [1] has as its target T1, Membrane-bound human uPAR on cells (human, UniProt Q03405 23-305).
T1 construct: whole, on cells; Also used for endogenous uPAR in H1299 lysates (co-immunoprecipitation) and in tumor xenografts and sections; also called cell surface uPAR; CD87
Nature of the assay: in vivo imaging, 2 nmol labelled IgG, 48 hours after injection.

Assay [2] concerns the target T2, Human soluble uPAR (residues 1-277) (human, UniProt Q03405 23-299).
T2 construct: also called soluble human uPAR
Nature of the assay: equilibrium SPR (Biacore 1000), IgG immobilized on a CM5 chip, soluble uPAR as analyte, one site binding model.

Assay [3] concerns the target T2, Human soluble uPAR (residues 1-277). The assay can be described thus: equilibrium SPR (Biacore), IgG immobilized, soluble uPAR as analyte (FIG. 4).

Numbering of substitutions follows the chain as printed.

T2 sequence (Q03405 23-299): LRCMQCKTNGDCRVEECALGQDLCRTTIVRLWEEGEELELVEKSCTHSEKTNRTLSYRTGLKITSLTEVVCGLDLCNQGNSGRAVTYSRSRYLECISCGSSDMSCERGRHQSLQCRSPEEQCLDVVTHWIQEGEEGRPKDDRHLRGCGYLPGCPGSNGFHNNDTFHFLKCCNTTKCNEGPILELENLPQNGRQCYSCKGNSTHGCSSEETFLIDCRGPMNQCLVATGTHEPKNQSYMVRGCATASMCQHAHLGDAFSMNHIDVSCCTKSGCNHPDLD
T1 sequence (Q03405 23-305): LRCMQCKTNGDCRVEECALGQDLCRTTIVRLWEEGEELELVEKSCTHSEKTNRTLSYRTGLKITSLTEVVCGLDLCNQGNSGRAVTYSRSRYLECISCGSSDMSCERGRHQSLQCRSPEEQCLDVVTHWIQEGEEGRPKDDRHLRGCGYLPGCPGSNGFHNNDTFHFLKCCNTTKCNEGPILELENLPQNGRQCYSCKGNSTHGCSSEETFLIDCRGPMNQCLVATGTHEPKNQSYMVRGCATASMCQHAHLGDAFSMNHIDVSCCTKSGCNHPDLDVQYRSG

B1: 3C6 IgG (antibody, V domains shown)
VH: QVQLQQWGAGLLKPSETLSLTCAVYGGSFSGYYWSWIRQPPGKGLEWIGEINHSGSTNYNPSLKSRVTISVDTSKNQFSLKLSSVTAADTAVYYCARGRRFGDFDYWGQGTLVTVSS
VL: QPVLTQPPSVSVAPGKTARITCGGNNIGSKSVHWYQQKPGQAPVLVVYDDSDRPPGIPERFSGSNSGNTATLTISRVEAGDEADYYCQVWDSSSDHSPFGTGTKVTVLG
notes: not shown: IgG constant region; the making of 3C6 IgG is not described
For the molecule B1, the binding result in assay [1] is listed as “binds”.

B2: 2E9 IgG (antibody, V domains shown)
VH: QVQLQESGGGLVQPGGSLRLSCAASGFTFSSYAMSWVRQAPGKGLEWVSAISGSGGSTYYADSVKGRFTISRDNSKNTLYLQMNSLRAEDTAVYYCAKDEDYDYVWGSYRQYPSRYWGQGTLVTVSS
VL: QSVLTQPPSVSVSPGQTASITCSGDNLGYKYASWYQQKPGQSPVLIIYQDKKRPSGIPERFSGSNSGNTATLTISGTQAMDEADYYCQAWDSSTSVVFGGGTKLTVLG
notes: also called 2E9 IgG1; not shown: human IgG1 constant region of vector pTT5-SP-H1
In turn, B2 showed a Kd in assay [2] of 9.2 nM. In other words, the single-digit nanomolar range.

B3: 1A8 IgG (antibody, V domains shown)
VH: QVQLQQSGPGLVKPSQTLSLTCAISGDSVSSNSAAWNWIRQSPSRGLEWLGRTYYRSKWYNDYAVSVKSRITINPDTSKNQFSLQLNSVTPEDTAVYYCTRDPGGALDDSFDIWGQGTMVTVSS
VL: DVVMTQSPASLSVSVGDRVTLTCQASQVINNHLNWYQQQPGKAPKLLVYDASNLETGVPSRFSGSGSGTDFTFTISGLQPEDIATYYCQQSDNLPLTFGGGTKLEIKR
notes: also called 1A8 IgG1; not shown: human IgG1 constant region of vector pTT5-SP-H1
Molecule B3 registered a Kd in assay [2] of 23.8 nM.

B4: 2G10 IgG (antibody, V domains shown)
VH: B3 VH with T72I, T100A, A106P
VL: DVVMTQSPLSLPVTPGEPASISCRSSQSLLRSNGYNYLDWYLQKPGQSPQLLIYLGSIRASGVPDRFSGSGSGTDFTLRISRVEAEDVGVYYCMQALQTPFTFGQGTKLEIKR
modifications: Alexa Fluor 680 (about 15 dyes per IgG) or DOTA-111In in the imaging experiments. It is unlabelled in SPR and flow cytometry.
notes: Used with an Alexa Fluor 680 or 111In-DOTA label in the in vivo imaging; also called 2G10 IgG1; DOTA-2G10 IgG
In the case of B4, the Kd is roughly 40.5 nM in assay [3] and 40.5 nM in assay [2].
